Values quoted from earlier work, collected in publication PMC5095918.
pKd: −log10 of the molar value.

Molecular target: FANCL RING (Homo sapiens) (UniProt Q9NW38)
Sequence of UniProt Q9NW38 (Q9NW38 304-366): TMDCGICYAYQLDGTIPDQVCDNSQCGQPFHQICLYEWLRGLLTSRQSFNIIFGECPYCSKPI

pKd: 6.35
Substance: UBE2T (from UniProt Q9NPD8)
